We go through six molecules from patent US20160193299A1, “MODIFIED NUCLEOSIDE, NUCLEOTIDE, AND NUCLEIC ACID COMPOSITIONS” (Moderna Therapeutics, Inc., priority 2011, published 2016).

For one data set, the system named is mouse myoblast (C2C12). The data set is described as follows: Example 44 signal sequence exchange study, secreted G-CSF ELISA. It is filed as cell-based. The note with it: MM, 250 ng modified mRNA, supernatant after 24 hrs. The source says: (§1) These variants included the G-CSF constructs encoding either the wild-type N terminal secretory signal peptide sequence ([…]; SEQ ID NO: 21), no secretory signal peptide sequence, or secretory signal peptide sequences taken from other mRNAs. These included sequences where the wild type GCSF signal peptide sequence was replaced with the signal peptide sequence of either: human α-1-anti trypsin (AAT) ([…]; SEQ ID NO: 22), human Factor IX (FIX) ([…]; SEQ ID NO: 23), human Prolactin (Prolac) ([…]; SEQ ID NO: 24), or human Albumin (Alb) ([…]; SEQ ID NO: 25).
(§2) 250 ng of modified mRNA encoding each G-CSF variant was transfected into HEK293A (293A in the table), mouse myoblast (MM in the table) (C2C12, CRL-1772, ATCC) and rat myoblast (RM in the table) (L6 line, CRL-1458, ATCC) cell lines in a 24 well plate using 1 ul of Lipofectamine 2000 (Life Technologies), each well containing 300,000 cells. […] The data shown in Table 68 reveal that cells transfected with G-CSF mmRNA encoding the Albumin signal peptide secrete at least 12 fold more G-CSF protein than its wild type counterpart.
(An ELISA detects its analyte on a solid surface through an enzyme-linked reagent.)

The next data set relates to rat myoblast (L6 line). The data set is described as above. It is filed as cell-based. The note with it: RM, 250 ng modified mRNA, supernatant after 24 hrs.
Excerpt: as §1, §2

A further data set deals with HEK293A. Described as above. The note with it: 293A, 250 ng modified mRNA, supernatant after 24 hrs. The format is cell-based, human.
Excerpt: as §1, §2

Data set [1] deals with Human primary foreskin fibroblasts (BJ fibroblasts). Briefly: Innate immune response transcripts in BJ fibroblasts, single transfection (qPCR). It is filed as cell-based. The note with it: 250 ng, 18 hours. As to the method: The cells were harvested after 18 hours, the total RNA was isolated and DNASE® treated using the RNeasy micro kit (catalog #74004) following the manufacturer's protocol. 100 ng of total RNA was used for cDNA synthesis using High Capacity cDNA Reverse Transcription kit (catalog #4368814) following the manufacturer's protocol. The cDNA was then analyzed for the expression of innate immune response genes by quantitative real time PCR using SybrGreen in a Biorad CFX 384 instrument following manufacturer's protocol. […] In the table, the panel of standard metrics includes: RIG-I is retinoic acid inducible gene 1, IL6 is interleukin-6, OAS-1 is oligoadenylate synthetase 1, IFNb is interferon-beta, AIM2 is absent in melanoma-2, IFIT-1 is interferon-induced protein with tetratricopeptide repeats 1, PKR is protein kinase R, TNFa is tumor necrosis factor alpha and IFNa is interferon alpha.
In general terms: Real-time PCR tracks product formation cycle by cycle.

The test system is the same in data set [2]. The data set is described as follows: Innate immune response in BJ fibroblasts, repeat transfection: cytokine response. It is filed as cell-based.
A further data set has as its system mice. The data set is described as follows: In vivo cytokine expression study (serum IFN-alpha). The note with it: mouse serum; I.M. 200 ug mRNA; after 8 hours.
The nature of data set [3]: Stability of modified RNA on storage (gel electrophoresis). The note with it: gel electrophoresis. The format is physicochemical. As to the method:
Stability experiments were conducted to obtain a better understanding of storage conditions to retain the integrity of modified RNA. […] After the mRNA had been stored for 0 hours, 2 hours, 6 hours, 24 hours, 48 hours, 5 days and 14 days, the mRNA was analyzed by gel electrophoresis using a Bio-Rad EXPERION′ system. The modified, unmodified and lipoplexed G-CSF mRNA was also stored in RNASTABLE® (Biomatrica, Inc. San Diego, Calif.) at 40° C. or water at −80° C. or 40° C. for 35 days before being analyzed by gel electrophoresis.
mRNA samples stored at 4° C., 25° C. and 37° C. were stored in 1× TE buffer or the formulation buffer (150 mM sodium chloride, 2 mM calcium chloride, 2 mM phosphate, 0.5 mM EDTA at a pH of 6.5). The mRNA stored at 4° C. was stable to at least 60 days in both the TE and formulation buffer. At 25° C. the mRNA in formulation buffer was stable out to 14 days and the TE buffer was stable out to at least 6 days. Storage of mRNA in the formulation buffer at 37° C. was stable to 6 days compared to the TE buffer which was stable only until 4 days.

A further data set relates to Female BALB/C mice. Briefly: In vivo detection of innate immune response: human G-CSF and mouse IFN-alpha in serum after I.M. injection.
The next data set deals with HEK293 cells. Briefly: In vitro expression of VEGF modified mRNA (ELISA). The format is cell-based.

Experimental for Female BALB/C mice: Blood is collected at 8 hours after dosing and using ELISA the protein levels of G-CSF and interferon-alpha (IFN-alpha) is determined by ELISA and are shown in Table 81.

Albumin: the “secreted G-CSF protein” value in the data set on mouse myoblast (C2C12) was determined as 81050 pg/mL; in the data set with rat myoblast (L6 line), 173300 pg/mL; in the data set on HEK293A, 122050 pg/mL.

Regarding “Natural Luciferase: natural luciferase mRNA SEQ ID NO: 16, Cap1”, in [1], the AIM2 transcript level is 0.251 fold-induction relative to HPRT, the IFIT-1 transcript level is reported as 151.218 fold-induction relative to HPRT, the IFNa transcript level is 0.067 fold-induction relative to HPRT and the IFNb transcript level is recorded as 11.404 fold-induction relative to HPRT. Besides, in [1], the IL6 transcript level is 20.6 fold-induction relative to HPRT, the OAS-1 transcript level is reported as 20.778 fold-induction relative to HPRT, the PKR transcript level is reported as 16.001 fold-induction relative to HPRT and the RIG-I transcript level is on record as 71.5 fold-induction relative to HPRT. Besides, the TNFa transcript level in data set [1] was 0.526 fold-induction relative to HPRT.

As to Prolactin, the “secreted G-CSF protein” value in the data set with mouse myoblast (C2C12) was found to be 1525 pg/mL; with rat myoblast (L6 line), 9800 pg/mL; in the data set with HEK293A, 7875 pg/mL.

For the molecule α-1-anti trypsin, the “secreted G-CSF protein” value is 5000 pg/mL in the data set with mouse myoblast (C2C12), 8475 pg/mL with rat myoblast (L6 line) and 9950 pg/mL with HEK293A.

B1: G-CSF unmodified: unmodified G-CSF mRNA SEQ ID NO: 6, Cap1 (nucleic acid, listed as Homo sapiens)
chain: GGGAAAUAAGAGAGAAAAGAAGAGUAAGAAGAAAUAUAAGAGCCACCAUGGCCGGUCCCGCGACCCAAAGCCCCAUGAAACUUAUGGCCCUGCAGUUGCUGCUUUGGCACUCGGCCCUCUGGACAGUCCAAGAAGCGACUCCUCUCGGACCUGCCUCAUCGUUGCCGCAGUCAUUCCUUUUGAAGUGUCUGGAGCAGGUGCGAAAGAUUCAGGGCGAUGGAGCCGCACUCCAAGAGAAGCUCUGCGCGACAUACAAACUUUGCCAUCCCGAGGAGCUCGUACUGCUCGGGCACAGCUUGGGGAUUCCCUGGGCUCCUCUCUCGUCCUGUCCGUCGCAGGCUUUGCAGUUGGCAGGGUGCCUUUCCCAGCUCCACUCCGGUUUGUUCUUGUAUCAGGGACUGCUGCAAGCCCUUGAGGGAAUCUCGCCAGAAUUGGGCCCGACGCUGGACACGUUGCAGCUCGACGUGGCGGAUUUCGCAACAACCAUCUGGCAGCAGAUGGAGGAACUGGGGAUGGCACCCGCGCUGCAGCCCACGCAGGGGGCAAUGCCGGCCUUUGCGUCCGCGUUUCAGCGCAGGGCGGGUGGAGUCCUCGUAGCGAGCCACCUUCAAUCAUUUUUGGAAGUCUCGUACCGGGUGCUGAGACAUCUUGCGCAGCCGUGAAGCGCUGCCUUCUGCGGGGCUUGCCUUCUGGCCAUGCCCUUCUUCUCUCCCUUGCACCUGUACCUCUUGGUCUUUGAAUAAAGCCUGAGUAGGAAG
modifications: Cap1
Regarding B1, the IFN-beta in [2] (250 ng transfected daily for 5 days, 6 hours) stood at 0 pg/mL; in [2] (daily transfection, Day 1), 1363 pg/mL; in data set [2] (daily transfection, Day 2), 238 pg/mL; in data set [2] (daily transfection, Day 3), 225 pg/mL; in data set [2] (daily transfection, Day 4) it was 363 pg/mL; in data set [2] (daily transfection, Day 5), 225 pg/mL. The IL-6 in [2] (daily transfection, 6 hours) was 3596 pg/mL; in data set [2] (daily transfection, Day 1) it was 15207 pg/mL; in data set [2] (daily transfection, Day 2) it was 12415 pg/mL; in [2] (daily transfection, Day 3), 5017 pg/mL; in data set [2] (daily transfection, Day 4), 4267 pg/mL; in data set [2] (daily transfection, Day 5), 3094 pg/mL. Also, the IFN-alpha in the data set with mice stood at 67.012 pg/mL. For the same molecule, the “stable out to (storage time)” value in [3] (stored at 25 C) worked out at 48 h; in [3] (stored at 37 C), 6 h; in data set [3] (stored at 50 C) it was 2 h. For the same molecule, the “PC Ratio” value with Female BALB/C mice (Protein:Cytokine ratio, G-CSF / IFN-alpha in mouse serum) was 9. Also, in the data set with Female BALB/C mice (human G-CSF in mouse serum, I.M., 200 ug/mouse mRNA (R848 75 ug) in 5% sucrose, 8 hours after dosing), the G-CSF protein turned out to be 605.6 pg/mL. In the data set on Female BALB/C mice (mouse IFN-alpha in serum, I.M., 200 ug/mouse mRNA (R848 75 ug), 8 hours after dosing), the IFN-alpha expression stood at 67.01 pg/mL.

B2: VEGF-A: modified mRNA VEGF-A SEQ ID NO: 19, Cap1, fully modified with 5-methylcytosine and pseudouridine, Lipofectamine2000 complexed (nucleic acid, listed as Homo sapiens)
sense: GGGAAAUAAGAGAGAAAAGAAGAGUAAGAAGAAAUAUAAGAGCCACCAUGAACUUUCUCUUGUCAUGGGUGCACUGGAGCCUUGCGCUGCUGCUGUAUCUUCAUCACGCUAAGUGGAGCCAGGCCGCACCCAUGGCGGAGGGUGGCGGACAGAAUCACCACGAAGUAGUCAAAUUCAUGGACGUGUACCAGAGGUCGUAUUGCCAUCCGAUUGAAACUCUUGUGGAUAUCUUUCAAGAAUACCCCGAUGAAAUCGAGUACAUUUUCAAACCGUCGUGUGUCCCUCUCAUGAGGUGCGGGGGAUGCUGCAAUGAUGAAGGGUUGGAGUGUGUCCCCACGGAGGAGUCGAAUAUCACAAUGCAAAUCAUGCGCAUCAAACCACAUCAGGGUCAGCAUAUUGGAGAGAUGUCCUUUCUCCAGCACAACAAAUGUGAGUGUAGACCGAAGAAGGACCGAGCCCGACAGGAAAACCCAUGCGGACCGUGCUCCGAGCGGCGCAAACACUUGUUCGUACAAGACCCCCAGACAUGCAAGUGCUCAUGUAAGAAUACCGAUUCGCGGUGUAAGGCGAGACAGCUGGAAUUGAACGAGCGCACGUGUAGGUGCGACAAGCCUAGACGGUGAGCUGCCUUCUGCGGGGCUUGCCUUCUGGCCAUGCCCUUCUUCUCUCCCUUGCACCUGUACCUCUUGGUCUUUGAAUAAAGCCUGAGUAGGAAG
modifications: Cap1, polyA, 5mC/pseudoU, Lipofectamine2000 complexed
Turning to B2, the Protein was found to be 0 pg/mL in the data set with HEK293 cells (amount transfected 2 pg); 0 pg/mL with HEK293 cells (amount transfected 10 pg); 0 pg/mL with HEK293 cells (amount transfected 39 pg); 189.6 pg/mL with HEK293 cells (amount transfected 156 pg); 2321.23 pg/mL with HEK293 cells (amount transfected 625 pg); 10038 pg/mL in the data set on HEK293 cells (amount transfected 2.5 ng). Moreover, the Protein in the data set with HEK293 cells (amount transfected 10 ng) turned out to be 10495 pg/mL; in the data set with HEK293 cells (amount transfected 610 fg), 0 pg/mL.
